The values that follow come from patent US20090117640A1.

Some results are limits rather than exact numbers.

Common to all, as to assay: cell-based or functional assay
For test [1], the target named is hGH mutant Q141N (human) (UniProt P01241).
Test [2] addresses Human growth hormone (human) (UniProt P01241).
Test [3] deals with hGH mutant Q40N (human) (UniProt P01241).
Sequence of hGH mutant Q40N (human) (P01241 27-217 Q66N): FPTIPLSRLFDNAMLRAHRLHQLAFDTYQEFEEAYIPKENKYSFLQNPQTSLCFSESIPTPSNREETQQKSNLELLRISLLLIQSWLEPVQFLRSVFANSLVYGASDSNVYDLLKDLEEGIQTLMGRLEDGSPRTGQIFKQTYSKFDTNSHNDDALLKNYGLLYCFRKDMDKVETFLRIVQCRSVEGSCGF

Sequence of hGH mutant Q141N (human) (P01241 27-217 Q167N): as the sequence (P01241 27-217 Q66N) above, with N40Q, Q141N counted along it
Sequence of Human growth hormone (human) (P01241 27-217 limits assumed): as the sequence (P01241 27-217 Q66N) above, with N40Q counted along it

B1: TGase from S. mobaraense (wild type) (enzyme)
chain: DSDDRVTPPAEPLDRMPDPYRPSYGRAETVVNNYIRKWQQVYSHRDGRKQQMTEEQREWLSYGCVGVTWVNSGQYPTNRLAFASFDEDRFKNELKNGRPRSGETRAEFEGRVAKESFDEEKGFQRAREVASVMNRALENAHDESAYLDNLKKELANGNDALRNEDARSPFYSALRNTPSFKERNGGNHDPSRMKAVIYSKHFWSGQDRSSSADKRKYGDPDAFRPAPGTGLVDMSRDRNIPRSPTSPGEGFVNFDYGWFGAQTEADADKTVWTHGNHYHAPNGSLGAMHVYESKFRNWSEGYSDFDRGAYVITFIPKSWNTAPDKVKQGWP
Take B1: in test [1], the Gln 40 vs Gln 141 (normalized), Gln 40 share (normalized ratio) is 21 and the HPLC peak area of remaining hGH-Q141N (area (arbitrary units)) worked out at 1290. In test [2], this molecule came in with an About 50% hGH reacted at t=, enzyme 0.07 µM (min (printed in h and min)) of 75; a Transamination Gln 40 vs Gln 141 (Gln 40 share), CE, enzyme 0.07 µM (share of mono-transamination products) of 15; a Transamination Gln 40 vs Gln 141 (Gln 141 share), CE, enzyme 0.07 µM (share of mono-transamination products) of 85. In test [3], the Gln 40 vs Gln 141 (normalized), Gln 141 share (normalized ratio) is 79 and the HPLC peak area of remaining hGH-Q40N (area (arbitrary units)) came out at 519.

B2: Y75E, Y302R TGase (enzyme)
chain: DSDDRVTPPAEPLDRMPDPYRPSYGRAETVVNNYIRKWQQVYSHRDGRKQQMTEEQREWLSYGCVGVTWVNSGQEPTNRLAFASFDEDRFKNELKNGRPRSGETRAEFEGRVAKESFDEEKGFQRAREVASVMNRALENAHDESAYLDNLKKELANGNDALRNEDARSPFYSALRNTPSFKERNGGNHDPSRMKAVIYSKHFWSGQDRSSSADKRKYGDPDAFRPAPGTGLVDMSRDRNIPRSPTSPGEGFVNFDYGWFGAQTEADADKTVWTHGNHYHAPNGSLGAMHVYESKFRNWSEGRSDFDRGAYVITFIPKSWNTAPDKVKQGWP
In test [2], B2 displayed an About 50% hGH reacted at t=, enzyme 7.20 µM (min (printed in h and min)) of 90; a Transamination Gln 40 vs Gln 141 (Gln 40 share), CE, enzyme 7.20 µM (share of mono-transamination products) of 65; a Transamination Gln 40 vs Gln 141 (Gln 141 share), CE, enzyme 7.20 µM (share of mono-transamination products) of 35.

B3: Y302R TGase (enzyme)
chain: DSDDRVTPPAEPLDRMPDPYRPSYGRAETVVNNYIRKWQQVYSHRDGRKQQMTEEQREWLSYGCVGVTWVNSGQYPTNRLAFASFDEDRFKNELKNGRPRSGETRAEFEGRVAKESFDEEKGFQRAREVASVMNRALENAHDESAYLDNLKKELANGNDALRNEDARSPFYSALRNTPSFKERNGGNHDPSRMKAVIYSKHFWSGQDRSSSADKRKYGDPDAFRPAPGTGLVDMSRDRNIPRSPTSPGEGFVNFDYGWFGAQTEADADKTVWTHGNHYHAPNGSLGAMHVYESKFRNWSEGRSDFDRGAYVITFIPKSWNTAPDKVKQGWP
Take B3: in test [2], the About 50% hGH reacted at t=, enzyme 0.39 µM stood at 30 min; the Transamination Gln 40 vs Gln 141 (Gln 40 share), CE, enzyme 0.39 µM (share of mono-transamination products) stood at 30; the Transamination Gln 40 vs Gln 141 (Gln 141 share), CE, enzyme 0.39 µM (share of mono-transamination products) was determined as 70.

B4: Y75E TGase (enzyme)
chain: DSDDRVTPPAEPLDRMPDPYRPSYGRAETVVNNYIRKWQQVYSHRDGRKQQMTEEQREWLSYGCVGVTWVNSGQEPTNRLAFASFDEDRFKNELKNGRPRSGETRAEFEGRVAKESFDEEKGFQRAREVASVMNRALENAHDESAYLDNLKKELANGNDALRNEDARSPFYSALRNTPSFKERNGGNHDPSRMKAVIYSKHFWSGQDRSSSADKRKYGDPDAFRPAPGTGLVDMSRDRNIPRSPTSPGEGFVNFDYGWFGAQTEADADKTVWTHGNHYHAPNGSLGAMHVYESKFRNWSEGYSDFDRGAYVITFIPKSWNTAPDKVKQGWP
In test [2], B4 registered an About 50% hGH reacted at t=, enzyme 3.90 µM of less than 30 min; a Transamination Gln 40 vs Gln 141 (Gln 40 share), CE, enzyme 3.90 µM (share of mono-transamination products) of 45; a Transamination Gln 40 vs Gln 141 (Gln 141 share), CE, enzyme 3.90 µM (share of mono-transamination products) of 55.

B5: TGase from Streptoverticillium ladakanum (enzyme)
chain: DSDERVTPPAEPLDRMPDPYRPSYGRAETIVNNYIRKWQQVYSHRDGRKQQMTEEQREWLSYGCVGVTWVNSGQYPTNRLAFAFFDEDKYKNELKNGRPRSGETRAEFEGRVAKDSFDEAKGFQRARDVASVMNKALENAHDEGAYLDNLKKELANGNDALRNEDARSPFYSALRNTPSFKDRNGGNHDPSKMKAVIYSKHFWSGQDRSGSSDKRKYGDPEAFRPDRGTGLVDMSRDRNIPRSPTSPGESFVNFDYGWFGAQTEADADKTVWTHGNHYHAPNGSLGAMHVYESKFRNWSDGYSDFDRGAYVVTFVPKSWNTAPDKVKQGWP
With B5, in test [1], the Gln 40 vs Gln 141 (normalized), Gln 40 share (normalized ratio) came to 11 and the HPLC peak area of remaining hGH-Q141N (area (arbitrary units)) turned out to be 1160. In test [3], the Gln 40 vs Gln 141 (normalized), Gln 141 share (normalized ratio) came to 89 and the HPLC peak area of remaining hGH-Q40N (area (arbitrary units)) was 375.
